{
  "source": "the RNAGym collection of RNA variant scans (doi:10.7554/elife.80360)",
  "parents": {"B1": {"name": "Hammerhead Ribozyme (parent)", "chain": "ACCGGAUGUGCUUUCCGGUCUGAUGAGUCCGUGAGGACGAAACAG"}},
  "data": [
    {"variants_of": "B1", "test": "self-cleavage, relative activity (ratio to wild type); higher = more cleavage; co-transcriptional", "values": [
      {"variant": "C3A C30A", "self-cleavage": 0.557},
      {"variant": "C3A C30G", "self-cleavage": 0.426},
      {"variant": "C3A C30U", "self-cleavage": 0.772},
      {"variant": "C2U G22A", "self-cleavage": 0.341},
      {"variant": "C2U G22C", "self-cleavage": 0.323},
      {"variant": "C2U G22U", "self-cleavage": 0.376},
      {"variant": "C2U C20G", "self-cleavage": 0.37},
      {"variant": "C2U C20U", "self-cleavage": 0.797},
      {"variant": "C2U C20A", "self-cleavage": 0.63},
      {"variant": "C3G G17C", "self-cleavage": 0.617},
      {"variant": "C3G G17U", "self-cleavage": 0.583},
      {"variant": "C3G G17A", "self-cleavage": 0.511},
      {"variant": "C2U G8C", "self-cleavage": 0.871},
      {"variant": "C2U G8U", "self-cleavage": 0.948},
      {"variant": "C2U G8A", "self-cleavage": 0.998},
      {"variant": "C2U G31A", "self-cleavage": 1.11},
      {"variant": "C2U G31C", "self-cleavage": 0.974},
      {"variant": "C2U G31U", "self-cleavage": 1.12},
      {"variant": "C2U U32C", "self-cleavage": 0.971},
      {"variant": "C2U U32A", "self-cleavage": 0.97},
      {"variant": "C2U U32G", "self-cleavage": 1.04},
      {"variant": "C3G G5U", "self-cleavage": 0.305},
      {"variant": "C3G G5A", "self-cleavage": 0.57},
      {"variant": "C3G G5C", "self-cleavage": 0.268},
      {"variant": "C3A A41U", "self-cleavage": 0.259},
      {"variant": "C3A A41C", "self-cleavage": 0.299},
      {"variant": "C3A A41G", "self-cleavage": 0.262},
      {"variant": "C3G C20U", "self-cleavage": 0.26},
      {"variant": "C3G C20A", "self-cleavage": 0.295},
      {"variant": "C3G C20G", "self-cleavage": 0.317},
      {"variant": "C2U G36A", "self-cleavage": 0.698},
      {"variant": "C2U G36U", "self-cleavage": 0.488},
      {"variant": "C2U G36C", "self-cleavage": 0.371},
      {"variant": "C3A U9A", "self-cleavage": 0.476},
      {"variant": "C3A U9G", "self-cleavage": 0.327},
      {"variant": "C3A U9C", "self-cleavage": 0.756},
      {"variant": "C3A C16G", "self-cleavage": 0.438},
      {"variant": "C3A C16A", "self-cleavage": 0.596},
      {"variant": "C3A C16U", "self-cleavage": 0.557},
      {"variant": "C2U G45A", "self-cleavage": 0.873},
      {"variant": "C2U G45U", "self-cleavage": 0.835},
      {"variant": "C2U G45C", "self-cleavage": 0.868},
      {"variant": "C2U G10C", "self-cleavage": 1.5},
      {"variant": "C2U G10A", "self-cleavage": 1.22},
      {"variant": "C2U G10U", "self-cleavage": 1.39},
      {"variant": "C3G A41G", "self-cleavage": 0.274},
      {"variant": "C3G A41C", "self-cleavage": 0.299},
      {"variant": "C3G A41U", "self-cleavage": 0.3},
      {"variant": "C3G G4C", "self-cleavage": 0.289},
      {"variant": "C3G G4A", "self-cleavage": 0.283},
      {"variant": "C3G G4U", "self-cleavage": 0.322},
      {"variant": "C3A U12G", "self-cleavage": 0.487},
      {"variant": "C3A U12C", "self-cleavage": 0.262},
      {"variant": "C3A U12A", "self-cleavage": 0.836},
      {"variant": "C3A A6C", "self-cleavage": 0.335},
      {"variant": "C3A A6G", "self-cleavage": 0.366},
      {"variant": "C3A A6U", "self-cleavage": 0.371},
      {"variant": "C2U G5A", "self-cleavage": 0.633},
      {"variant": "C2U G5C", "self-cleavage": 0.364},
      {"variant": "C2U G5U", "self-cleavage": 0.535},
      {"variant": "C2U C29U", "self-cleavage": 1.29},
      {"variant": "C2U C29A", "self-cleavage": 0.701},
      {"variant": "C2U C29G", "self-cleavage": 1.02},
      {"variant": "C3G A40C", "self-cleavage": 0.284},
      {"variant": "C3G A40U", "self-cleavage": 0.309},
      {"variant": "C3G A40G", "self-cleavage": 0.341},
      {"variant": "C2U G27A", "self-cleavage": 1.06},
      {"variant": "C2U G27C", "self-cleavage": 0.654},
      {"variant": "C2U G27U", "self-cleavage": 0.568},
      {"variant": "C2U G4C", "self-cleavage": 0.397},
      {"variant": "C2U G4U", "self-cleavage": 0.335},
      {"variant": "C2U G4A", "self-cleavage": 0.361},
      {"variant": "C2U G18A", "self-cleavage": 1.19},
      {"variant": "C2U G18U", "self-cleavage": 1.16},
      {"variant": "C2U G18C", "self-cleavage": 0.869},
      {"variant": "C2U C38G", "self-cleavage": 0.976},
      {"variant": "C2U C38U", "self-cleavage": 1.21},
      {"variant": "C2U C38A", "self-cleavage": 0.854},
      {"variant": "C2U U7G", "self-cleavage": 1.72},
      {"variant": "C2U U7C", "self-cleavage": 0.541},
      {"variant": "C2U U7A", "self-cleavage": 1.58},
      {"variant": "C3G A26G", "self-cleavage": 0.296},
      {"variant": "C3G A26C", "self-cleavage": 0.268},
      {"variant": "C3G A26U", "self-cleavage": 0.361},
      {"variant": "C2U G17C", "self-cleavage": 0.375},
      {"variant": "C2U G17U", "self-cleavage": 0.409},
      {"variant": "C2U G17A", "self-cleavage": 0.392},
      {"variant": "C3A C20U", "self-cleavage": 0.319},
      {"variant": "C3A C20G", "self-cleavage": 0.254},
      {"variant": "C3A C20A", "self-cleavage": 0.348},
      {"variant": "C3A C38A", "self-cleavage": 0.315},
      {"variant": "C3A C38U", "self-cleavage": 0.515},
      {"variant": "C3A C38G", "self-cleavage": 0.329},
      {"variant": "C3A G35C", "self-cleavage": 0.324},
      {"variant": "C3A G35A", "self-cleavage": 0.376},
      {"variant": "C3A G35U", "self-cleavage": 0.369},
      {"variant": "C3A U28G", "self-cleavage": 0.34},
      {"variant": "C3A U28C", "self-cleavage": 0.354},
      {"variant": "C3A U28A", "self-cleavage": 0.311},
      {"variant": "C3G G35U", "self-cleavage": 0.32},
      {"variant": "C3G G35A", "self-cleavage": 0.292},
      {"variant": "C3G G35C", "self-cleavage": 0.248},
      {"variant": "C2U G39U", "self-cleavage": 0.359},
      {"variant": "C2U G39C", "self-cleavage": 0.336},
      {"variant": "C2U G39A", "self-cleavage": 0.376},
      {"variant": "C3A A40C", "self-cleavage": 0.324},
      {"variant": "C3A A40G", "self-cleavage": 0.353},
      {"variant": "C3A A40U", "self-cleavage": 0.278},
      {"variant": "C3G U14A", "self-cleavage": 0.347},
      {"variant": "C3G U14C", "self-cleavage": 0.56},
      {"variant": "C3A C43G", "self-cleavage": 0.261},
      {"variant": "C3A C43A", "self-cleavage": 0.28},
      {"variant": "C3A C43U", "self-cleavage": 0.378},
      {"variant": "C3G G39A", "self-cleavage": 0.31},
      {"variant": "C3G G39C", "self-cleavage": 0.288},
      {"variant": "C3G G39U", "self-cleavage": 0.284},
      {"variant": "C3G G25U", "self-cleavage": 0.329},
      {"variant": "C3G G25A", "self-cleavage": 0.296},
      {"variant": "C3G G25C", "self-cleavage": 0.33},
      {"variant": "C3G", "self-cleavage": 0.537},
      {"variant": "C3A", "self-cleavage": 0.772},
      {"variant": "C2U C15A", "self-cleavage": 0.397},
      {"variant": "C2U C15G", "self-cleavage": 0.385},
      {"variant": "C2U C15U", "self-cleavage": 0.76},
      {"variant": "C3G C43G", "self-cleavage": 0.273},
      {"variant": "C3G C43U", "self-cleavage": 0.272},
      {"variant": "C3G C43A", "self-cleavage": 0.318},
      {"variant": "C3A C29U", "self-cleavage": 0.534},
      {"variant": "C3A C29A", "self-cleavage": 0.406},
      {"variant": "C3A C29G", "self-cleavage": 0.397},
      {"variant": "C3A G8C", "self-cleavage": 0.467},
      {"variant": "C3A G8A", "self-cleavage": 0.629},
      {"variant": "C3A G8U", "self-cleavage": 0.902},
      {"variant": "C3A U13A", "self-cleavage": 1.33},
      {"variant": "C3A U13C", "self-cleavage": 0.963},
      {"variant": "C3A U13G", "self-cleavage": 0.847},
      {"variant": "C2U G33C", "self-cleavage": 1.06},
      {"variant": "C2U G33U", "self-cleavage": 1.17},
      {"variant": "C2U G33A", "self-cleavage": 1.14},
      {"variant": "C3A A26U", "self-cleavage": 0.399},
      {"variant": "C3A A26G", "self-cleavage": 0.253},
      {"variant": "C3A A26C", "self-cleavage": 0.292},
      {"variant": "C2U U21G", "self-cleavage": 0.742},
      {"variant": "C2U U21A", "self-cleavage": 0.962},
      {"variant": "C2U U21C", "self-cleavage": 0.273},
      {"variant": "C3A C15A", "self-cleavage": 0.312},
      {"variant": "C3A C15U", "self-cleavage": 0.518},
      {"variant": "C3A C15G", "self-cleavage": 0.346},
      {"variant": "C3A G33C", "self-cleavage": 0.741},
      {"variant": "C3A G33U", "self-cleavage": 0.733},
      {"variant": "C3A G33A", "self-cleavage": 0.674},
      {"variant": "C3A G5A", "self-cleavage": 0.319},
      {"variant": "C3A G5C", "self-cleavage": 0.319},
      {"variant": "C3A G5U", "self-cleavage": 0.28},
      {"variant": "C3A G25C", "self-cleavage": 0.344},
      {"variant": "C3A G25U", "self-cleavage": 0.282},
      {"variant": "C3A G25A", "self-cleavage": 0.298},
      {"variant": "C3G G33C", "self-cleavage": 0.468},
      {"variant": "C3G G33A", "self-cleavage": 0.577},
      {"variant": "C3G G33U", "self-cleavage": 0.591},
      {"variant": "C2U G25C", "self-cleavage": 0.345},
      {"variant": "C2U G25U", "self-cleavage": 0.28},
      {"variant": "C2U G25A", "self-cleavage": 0.386},
      {"variant": "C3A A44C", "self-cleavage": 0.418},
      {"variant": "C3A A44G", "self-cleavage": 1.01},
      {"variant": "C3A A44U", "self-cleavage": 0.392},
      {"variant": "C3G A42G", "self-cleavage": 0.256}
    ]}
  ]
}
